# Test results: article doi:10.1101/2025.08.19.670962 (2025)
# B1: JIP3-GFP [not stated] / TMEM55B (in HEK293 wild type cells, Figure 4) [not stated] (parent complex)
# chain 1: MMEIQMDEGGGVVVYQDDYCSGSVMSERVSGLAGSIYREFERLIHCYDEEVVKELMPLVVNVLENLDSVLSENQEHEVELELLREDNEQLLTQYEREKALRRQAEEKFIEFEDALEQEKKELQIQVEHYEFQTRQLELKAKNYADQISRLEERESEMKKEYNALHQRHTEMIQTYVEHIERSKMQQVGGNSQTESSLPGRRKERPTSLNVFPLADGTVRAQIGGKLVPAGDHWHLSDLGQLQSSSSYQCPQDEMSESGQSSAAATPSTTGTKSNTPTSSVPSAAVTPLNESLQPLGDYGVGSKNSKRAREKRDSRNMEVQVTQEMRNVSIGMGSSDEWSDVQDIIDSTPELDMCPETRLDRTGSSPTQGIVNKAFGINTDSLYHELSTAGSEVIGDVDEGADLLGEFSVRDDFFGMGKEVGNLLLENSQLLETKNALNVVKNDLIAKVDQLSGEQEVLRGELEAAKQAKVKLENRIKELEEELKRVKSEAIIARREPKEEAEDVSSYLCTESDKIPMAQRRRFTRVEMARVLMERNQYKERLMELQEAVRWTEMIRASREHPSVQEKKKSTIWQFFSRLFSSSSSPPPAKRPYPSVNIHYKSPTTAGFSQRRNHAMCPISAGSRPLEFFPDDDCTSSARREQKREQYRQVREHVRNDDGRLQACGWSLPAKYKQLSPNGGQEDTRMKNVPVPVYCRPLVEKDPTMKLWCAAGVNLSGWRPNEDDAGNGVKPAPGRDPLTCDREGDGEPKSAHTSPEKKKAKELPEMDATSSRVWILTSTLTTSKVVIIDANQPGTVVDQFTVCNAHVLCISSIPAASDSDYPPGEMFLDSDVNPEDPGADGVLAGITLVGCATRCNVPRSNCSSRGDTPVLDKGQGEVATIANGKVNPSQSTEEATEATEVPDPGPSEPETATLRPGPLTEHVFTDPAPTPSSGPQPGSENGPEPDSSSTRPEPEPSGDPTGAGSSAAPTMWLGAQNGWLYVHSAVANWKKCLHSIKLKDSVLSLVHVKGRVLVALADGTLAIFHRGEDGQWDLSNYHLMDLGHPHHSIRCMAVVYDRVWCGYKNKVHVIQPKTMQIEKSFDAHPRRESQVRQLAWIGDGVWVSIRLDSTLRLYHAHTHQHLQDVDIEPYVSKMLGTGKLGFSFVRITALLVAGSRLWVGTGNGVVISIPLTETVVLHRGQLLGLRANKTSPTSGEGARPGGIIHVYGDDSSDRAASSFIPYCSMAQAQLCFHGHRDAVKFFVSVPGNVLATLNGSVLDSPAEGPGPAAPASEVEGQKLRNVLVLSGGEGYIDFRIGDGEDDETEEGAGDMSQVKPVLSKAERSHIIVWQVSYTPE
# chain 2: not shown
# Variants of: B1
# Experiment: co-immunoprecipitation (GFP IP, quantitative immunoblot); HEK293 wild type cells, lysed 24h post transfection; parent: 31; read off a plot
row,response [TMEM55B/GFP],Variant
1,~10,"chain 1 A895L, chain 1 E897K"
